Measurements published in article PMC11485048.

Tests used:
[1] = molecular target: SpyTag-noro-VLP (norovirus-like particle of the capsid protein VP1 with a C-terminally fused SpyTag) (norovirus (genotype not stated)); assay: covalent SpyCatcher/SpyTag conjugation read by SDS-PAGE densitometry; SpyCatcher-P domain conjugated on SpyTag-noro-VLP as in the first experiment; nonconjugated antigen removed by size-exclusion chromatography (HiPrep 16/60 Sephacryl S-500 HR); second immunization experiment
[2] = molecular target: SpyTag-noro-VLP (norovirus-like particle of the capsid protein VP1 with a C-terminally fused SpyTag) (norovirus (genotype not stated)); assay: covalent SpyCatcher/SpyTag conjugation read by SDS-PAGE densitometry; SpyCatcher-antigen mixed with SpyTag-noro-VLP at 2:1 (P domain) or 4:1 (peptides) molar ratio, about 40 hours at +4 °C; unreacted SpyCatcher-antigen removed by dialysis through a 1000 kDa cut-off membrane; first immunization experiment

Substance: SpyCatcher-P domain fusion (furin P domain, residues 444-576) (from UniProt P09958 444-576)
- conjugation efficiency (%) [1]: 5%
- conjugation efficiency (%) [2]: 20%
